Laboratory results as given in patent publication US20250019439A1 (Adimab, published 2025).

What was measured:
ADI-26912 = biological target: T1, ADI-26912; test: SPR Carterra, yeast anti-ID
T1 construct: anti-CD3 antibody made in CHO cells, captured by anti-human Fc
Method in brief: (§1)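 Anti-human Fc capture chip (amine coupled); anti-CD3 IgG 100 nM, 5 min capture; 25° C, HBSTE. Non-regenerative kinetic cycles, anti-ID dissociation 300s; glycine pH 1.7 regeneration. Double-reference subtraction, 1:1 fit.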

ADI-26915 = biological target: T2, ADI-26915; test: SPR Carterra, yeast anti-ID
T2 construct: anti-CD3 antibody made in CHO cells, captured by anti-human Fc
T2 sequence (VH, as listed by the source, chain 1 of 2): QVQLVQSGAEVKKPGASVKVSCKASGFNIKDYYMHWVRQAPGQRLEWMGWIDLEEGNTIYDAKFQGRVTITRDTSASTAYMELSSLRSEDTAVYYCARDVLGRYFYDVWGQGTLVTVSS
T2 sequence (VL, as listed by the source, chain 2 of 2): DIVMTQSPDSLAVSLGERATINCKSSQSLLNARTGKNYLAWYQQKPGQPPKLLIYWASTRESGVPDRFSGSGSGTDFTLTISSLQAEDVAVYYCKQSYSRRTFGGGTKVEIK
Method in brief: as §1

ADI-48576 = biological target: T3, ADI-48576; test: SPR Carterra, yeast anti-ID
T3 construct: pH-dependent anti-CD3 antibody made in CHO cells
T3 sequence (VH, as listed by the source, chain 1 of 2): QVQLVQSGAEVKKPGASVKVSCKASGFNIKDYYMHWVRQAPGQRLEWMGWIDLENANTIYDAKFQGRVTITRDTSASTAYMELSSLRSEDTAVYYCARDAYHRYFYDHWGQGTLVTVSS
T3 sequence (VL, as listed by the source, chain 2 of 2): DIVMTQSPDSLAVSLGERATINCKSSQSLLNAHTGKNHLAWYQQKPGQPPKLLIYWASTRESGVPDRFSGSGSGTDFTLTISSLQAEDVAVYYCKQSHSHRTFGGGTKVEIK
Method in brief: as §1

ADI-48592 = biological target: T4, ADI-48592; test: SPR Carterra, yeast anti-ID
T4 construct: pH-dependent anti-CD3 antibody made in CHO cells
T4 sequence (VH, as listed by the source, chain 1 of 2): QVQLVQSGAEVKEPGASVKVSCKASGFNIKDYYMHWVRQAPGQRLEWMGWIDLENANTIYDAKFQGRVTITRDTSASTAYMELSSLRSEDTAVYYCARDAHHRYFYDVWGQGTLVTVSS
T4 sequence (VL, as listed by the source, chain 2 of 2): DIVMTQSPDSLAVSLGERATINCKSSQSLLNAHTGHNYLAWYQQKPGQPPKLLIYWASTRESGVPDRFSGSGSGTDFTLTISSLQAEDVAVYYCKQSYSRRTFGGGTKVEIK
Method in brief: as §1

ADI-48650 = biological target: T5, ADI-48650; test: SPR Carterra, yeast anti-ID
T5 construct: pH-dependent anti-CD3 antibody made in CHO cells
Method in brief: as §1

ADI-74965 = biological target: T6, ADI-74965; test: SPR Carterra, yeast anti-ID
T6 construct: pH-dependent anti-CD3 antibody made in CHO cells
Method in brief: as §1

CTL-62227 = biological target: T7, CTL-62227; test: SPR Carterra, yeast anti-ID
T7 construct: also called odronextamab
T7 sequence (VH, as listed by the source, chain 1 of 2): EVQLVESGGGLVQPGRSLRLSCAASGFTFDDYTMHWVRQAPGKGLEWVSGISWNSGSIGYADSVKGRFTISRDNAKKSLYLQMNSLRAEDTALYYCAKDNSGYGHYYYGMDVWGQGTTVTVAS
T7 sequence (VL, as listed by the source, chain 2 of 2): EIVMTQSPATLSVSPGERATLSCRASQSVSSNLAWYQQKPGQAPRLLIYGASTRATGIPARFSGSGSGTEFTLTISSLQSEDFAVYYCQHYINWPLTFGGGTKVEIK
Method in brief: as §1

CTL-62228 = biological target: T8, CTL-62228; test: SPR Carterra, yeast anti-ID
T8 construct: also called glofitamab
Method in brief: as §1

CTL-62240 = biological target: T9, CTL-62240; test: SPR Carterra, yeast anti-ID
T9 construct: also called ONO-4685
Method in brief: as §1

ADI-50024 = biological target: T10, ADI-50024; test: SPR Carterra avidity, yeast anti-ID
T10 construct: anti-CD3 antibody made in CHO cells, captured by anti-human Fc
Method in brief: as §1

ADI-70326 = biological target: T11, ADI-70326; test: SPR Carterra avidity, yeast anti-ID
T11 construct: anti-CD3 antibody made in CHO cells, captured by anti-human Fc
Method in brief: as §1

ADI-70327 = biological target: T12, ADI-70327; test: SPR Carterra avidity, yeast anti-ID
T12 construct: anti-CD3 antibody made in CHO cells, captured by anti-human Fc
Method in brief: as §1

ADI-70330 = biological target: T13, ADI-70330; test: SPR Carterra avidity, yeast anti-ID
T13 construct: anti-CD3 antibody made in CHO cells, captured by anti-human Fc
Method in brief: as §1

ADI-26906 IgG = biological target: T14, ADI-26906 IgG; test: SPR Carterra avidity, yeast anti-ID
T14 construct: anti-CD3 IgG
Method in brief: as §1

ADI-67450 = biological target: T15, ADI-67450; test: SPR Carterra avidity, yeast anti-ID
T15 construct: anti-CD3 antibody made in CHO cells, captured by anti-human Fc
T15 sequence (VH, as listed by the source limits assumed, chain 1 of 2): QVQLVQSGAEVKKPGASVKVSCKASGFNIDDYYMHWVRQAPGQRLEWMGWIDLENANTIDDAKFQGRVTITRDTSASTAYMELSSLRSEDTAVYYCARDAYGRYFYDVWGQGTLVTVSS
Method in brief: as §1

ADI-26913 IgG = biological target: T16, ADI-26913 IgG; test: SPR Carterra avidity, yeast anti-ID
T16 construct: anti-CD3 IgG
Method in brief: as §1

ADI-26919 = biological target: T17, ADI-26919; test: SPR Carterra avidity, yeast anti-ID
T17 construct: anti-CD3 antibody made in CHO cells, captured by anti-human Fc
Method in brief: as §1

ADI-26916 IgG = biological target: T18, ADI-26916 IgG; test: SPR Carterra avidity, yeast anti-ID
T18 construct: anti-CD3 IgG
T18 sequence (VH, as listed by the source, chain 1 of 2): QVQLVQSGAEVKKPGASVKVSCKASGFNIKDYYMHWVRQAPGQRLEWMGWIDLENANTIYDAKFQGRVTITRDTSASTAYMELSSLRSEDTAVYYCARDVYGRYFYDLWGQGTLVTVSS
Method in brief: as §1

ADI-48587 = biological target: T19, ADI-48587; test: SPR Carterra avidity, yeast anti-ID
T19 construct: pH-dependent anti-CD3 antibody made in CHO cells
T19 sequence (VH, as listed by the source, chain 1 of 2): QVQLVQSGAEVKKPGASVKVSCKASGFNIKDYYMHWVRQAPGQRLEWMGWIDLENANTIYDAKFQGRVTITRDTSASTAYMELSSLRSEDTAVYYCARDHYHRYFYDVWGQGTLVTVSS
T19 sequence (VL, as listed by the source, chain 2 of 2): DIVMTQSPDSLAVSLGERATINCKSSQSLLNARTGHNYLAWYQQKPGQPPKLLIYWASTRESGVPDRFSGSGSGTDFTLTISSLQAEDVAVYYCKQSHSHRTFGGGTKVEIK
Method in brief: as §1

ADI-74966 = biological target: T20, ADI-74966; test: SPR Carterra avidity, yeast anti-ID
T20 construct: pH-dependent anti-CD3 antibody made in CHO cells
T20 sequence (VL, as listed by the source, chain 2 of 2): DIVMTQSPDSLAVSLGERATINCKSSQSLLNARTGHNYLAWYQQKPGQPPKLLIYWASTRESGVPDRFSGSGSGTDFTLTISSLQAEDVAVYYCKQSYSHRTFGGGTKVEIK
Method in brief: as §1

ADI-74967 = biological target: T21, ADI-74967; test: SPR Carterra avidity, yeast anti-ID
T21 construct: pH-dependent anti-CD3 antibody made in CHO cells
T21 sequence (VL, as listed by the source, chain 2 of 2): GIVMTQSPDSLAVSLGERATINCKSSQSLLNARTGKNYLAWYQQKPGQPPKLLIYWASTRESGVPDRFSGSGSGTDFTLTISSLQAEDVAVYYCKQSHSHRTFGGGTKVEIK
Method in brief: as §1

ADI-74968 = biological target: T22, ADI-74968; test: SPR Carterra avidity, yeast anti-ID
T22 construct: pH-dependent anti-CD3 antibody made in CHO cells
Method in brief: as §1

ADI-76357 = biological target: T23, ADI-76357; test: SPR Carterra avidity, yeast anti-ID
T23 construct: anti-CD3 antibody made in CHO cells, captured by anti-human Fc
T23 sequence (VH, as listed by the source, chain 1 of 2): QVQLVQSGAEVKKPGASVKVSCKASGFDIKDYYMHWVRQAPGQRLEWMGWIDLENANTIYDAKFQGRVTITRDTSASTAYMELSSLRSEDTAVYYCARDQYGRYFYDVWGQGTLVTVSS
Method in brief: as §1

ADI-76358 = biological target: T24, ADI-76358; test: SPR Carterra avidity, yeast anti-ID
T24 construct: anti-CD3 antibody made in CHO cells, captured by anti-human Fc
Method in brief: as §1

ADI-76360 = biological target: T25, ADI-76360; test: SPR Carterra avidity, yeast anti-ID
T25 construct: anti-CD3 antibody made in CHO cells, captured by anti-human Fc
T25 sequence (VH, as listed by the source, chain 1 of 2): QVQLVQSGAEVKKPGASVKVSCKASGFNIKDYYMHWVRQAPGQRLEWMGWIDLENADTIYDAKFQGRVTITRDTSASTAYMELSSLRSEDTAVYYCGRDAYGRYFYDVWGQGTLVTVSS
T25 sequence (VL, as listed by the source, chain 2 of 2): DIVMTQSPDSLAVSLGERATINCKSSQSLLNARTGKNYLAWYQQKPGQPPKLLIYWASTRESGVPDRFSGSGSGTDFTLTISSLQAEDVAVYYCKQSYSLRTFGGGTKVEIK
Method in brief: as §1

CTL-62223 = biological target: T26, CTL-62223; test: SPR Carterra avidity, yeast anti-ID
T26 construct: also called mosunetuzumab
T26 sequence (VH, as listed by the source, chain 1 of 2): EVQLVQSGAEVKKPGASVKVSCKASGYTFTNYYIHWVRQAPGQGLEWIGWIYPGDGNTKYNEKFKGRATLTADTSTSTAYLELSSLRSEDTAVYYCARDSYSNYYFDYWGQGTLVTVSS
T26 sequence (VL, as listed by the source, chain 2 of 2): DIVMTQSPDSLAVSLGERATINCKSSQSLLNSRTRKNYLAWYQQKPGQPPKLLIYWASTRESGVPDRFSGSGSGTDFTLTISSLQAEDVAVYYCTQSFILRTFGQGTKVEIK
Method in brief: as §1

ADI-22523 Fab = biological target: T27, ADI-22523 Fab; test: BLI; tip anti-ID IgG, solution ADI-22523 Fab
T27 construct: anti-CD3 Fab by papain digestion of the IgG
Method in brief: (§2)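 Bio-layer interferometry with anti-ID IgG loaded on AHC tips. KD (koff/kon) from 1:1 binding model fit; avid format.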

ADI-22523 IgG = biological target: T28, ADI-22523 IgG; test: BLI; tip anti-ID IgG, solution ADI-22523 IgG
T28 construct: anti-CD3 IgG
T28 sequence (VH, as listed by the source limits assumed, chain 1 of 2): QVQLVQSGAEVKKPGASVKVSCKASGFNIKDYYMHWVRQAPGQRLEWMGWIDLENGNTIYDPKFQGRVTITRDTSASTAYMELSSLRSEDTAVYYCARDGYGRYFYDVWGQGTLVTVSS
T28 sequence (VL, as listed by the source limits assumed, chain 2 of 2): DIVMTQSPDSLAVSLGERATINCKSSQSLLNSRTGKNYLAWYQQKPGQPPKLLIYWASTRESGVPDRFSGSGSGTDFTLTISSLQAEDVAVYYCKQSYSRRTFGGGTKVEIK
Method in brief: as §2

ADI-67445 = biological target: T29, ADI-67445; test: SPR Carterra avidity, yeast anti-ID, *koff limit
T29 construct: anti-CD3 antibody made in CHO cells, captured by anti-human Fc
Method in brief: as §1

ADI-67447 = biological target: T30, ADI-67447; test: SPR Carterra avidity, yeast anti-ID, *koff limit
T30 construct: anti-CD3 antibody made in CHO cells, captured by anti-human Fc
Method in brief: as §1

ADI-26909 = biological target: T31, ADI-26909; test: SPR Carterra avidity, yeast anti-ID, *koff limit
T31 construct: anti-CD3 antibody made in CHO cells, captured by anti-human Fc
T31 sequence (VH, as listed by the source limits assumed, chain 1 of 2): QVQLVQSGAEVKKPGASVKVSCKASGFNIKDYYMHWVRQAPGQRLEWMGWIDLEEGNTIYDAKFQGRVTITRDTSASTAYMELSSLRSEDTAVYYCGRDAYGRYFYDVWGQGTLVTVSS
Method in brief: as §1

ADI-26920 IgG = biological target: T32, ADI-26920 IgG; test: SPR Carterra avidity, yeast anti-ID, *koff limit
T32 construct: anti-CD3 IgG
T32 sequence (VH, as listed by the source limits assumed, chain 1 of 2): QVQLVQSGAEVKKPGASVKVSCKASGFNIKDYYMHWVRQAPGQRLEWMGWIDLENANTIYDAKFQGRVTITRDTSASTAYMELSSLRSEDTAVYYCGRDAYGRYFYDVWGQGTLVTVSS
Method in brief: as §1

ADI-26921 IgG = biological target: T33, ADI-26921 IgG; test: SPR Carterra avidity, yeast anti-ID, *koff limit
T33 construct: anti-CD3 IgG
T33 sequence (VH, as listed by the source limits assumed, chain 1 of 2): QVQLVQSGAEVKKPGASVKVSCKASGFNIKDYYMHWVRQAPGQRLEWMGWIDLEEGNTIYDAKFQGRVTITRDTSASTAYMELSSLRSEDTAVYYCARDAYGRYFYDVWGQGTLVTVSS
Method in brief: as §1

ADI-26924 = biological target: T34, ADI-26924; test: SPR Carterra avidity, yeast anti-ID, *koff limit
T34 construct: anti-CD3 antibody made in CHO cells, captured by anti-human Fc
T34 sequence (VH, as listed by the source, chain 1 of 2): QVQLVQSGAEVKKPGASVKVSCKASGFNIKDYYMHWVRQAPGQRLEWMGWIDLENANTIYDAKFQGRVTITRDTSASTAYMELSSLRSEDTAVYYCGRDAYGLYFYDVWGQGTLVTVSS
Method in brief: as §1

ADI-26943 = biological target: T35, ADI-26943; test: SPR Carterra avidity, yeast anti-ID, *koff limit
T35 construct: anti-CD3 antibody made in CHO cells, captured by anti-human Fc
Method in brief: as §1

ADI-76359 = biological target: T36, ADI-76359; test: SPR Carterra avidity, yeast anti-ID, *koff limit
T36 construct: anti-CD3 antibody made in CHO cells, captured by anti-human Fc
T36 sequence (VH, as listed by the source, chain 1 of 2): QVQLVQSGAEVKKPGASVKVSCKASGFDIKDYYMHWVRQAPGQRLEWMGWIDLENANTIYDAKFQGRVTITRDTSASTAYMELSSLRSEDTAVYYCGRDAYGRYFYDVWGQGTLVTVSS
Method in brief: as §1

ADI-76361 = biological target: T37, ADI-76361; test: SPR Carterra avidity, yeast anti-ID, *koff limit
T37 construct: anti-CD3 antibody made in CHO cells, captured by anti-human Fc
Method in brief: as §1

ADI-76362 = biological target: T38, ADI-76362; test: SPR Carterra avidity, yeast anti-ID, *koff limit
T38 construct: anti-CD3 antibody made in CHO cells, captured by anti-human Fc
Method in brief: as §1

B1: ADI-34131 (antibody, V domains shown)
VH: QVQLVQSGAEVKKPGSSVKVSCKASGGTFSSYAISWVRQAPGQGLEWMGGIIPIFGTANYAQKFQGRVTITADESTSTAYMELSSLRSEDTAVYYCARGAPNYYGSGGYDDGWFDPWGQGTLVTVSS
VL: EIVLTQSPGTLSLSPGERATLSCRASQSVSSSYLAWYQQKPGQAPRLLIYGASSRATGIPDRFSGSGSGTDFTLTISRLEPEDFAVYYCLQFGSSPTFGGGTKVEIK
notes: anti-ID IgG
B1: no binding (tested: up to 200 nM) (ADI-26912); no binding (tested: up to 200 nM) (ADI-26915); no binding (tested: up to 200 nM) (ADI-48576). B1: no binding (tested: up to 200 nM) (ADI-48592); no binding (tested: up to 200 nM) (ADI-48650); no binding (tested: up to 200 nM) (ADI-74965). B1: no binding (tested: up to 200 nM) (CTL-62227); no binding (tested: up to 200 nM) (CTL-62228); no binding (tested: up to 200 nM) (CTL-62240). It also gave a Kd (ADI-50024) of 18 nM, a Kd (ADI-70326) of 130 nM and a Kd (ADI-70327) of 130 nM. It also gave a Kd (ADI-70330) of 80 nM, a Kd (ADI-26906 IgG) of 27 nM and a Kd (ADI-67450) of 69 nM. The Kd (ADI-26913 IgG) was 20 nM, the Kd (ADI-26919) was 25 nM and the Kd (ADI-26916 IgG) was 84 nM. The binding result (ADI-48587) was “binds”, the Kd (ADI-74966) was 31 nM and the Kd (ADI-74967) was 22 nM. The binding result (ADI-74968) was “binds”, the Kd (ADI-76357) was 35 nM and the Kd (ADI-76358) was 91 nM. It also gave a Kd (ADI-76360) of 43 nM, a Kd (CTL-62223) of 54 nM and a Kd (ADI-22523 Fab) of 13.5 nM. It also gave a Kd (ADI-22523 IgG) of 0.73 nM, a Kd (ADI-67445) of 25 nM and a Kd (ADI-67447) of 13 nM. The Kd (ADI-26909) was 13 nM, the Kd (ADI-26920 IgG) was 11 nM and the Kd (ADI-26921 IgG) was 18 nM. It also gave a Kd (ADI-26924) of 17 nM, a Kd (ADI-26943) of 22 nM and a Kd (ADI-76359) of 8.7 nM. The Kd (ADI-76361) was 19 nM and the Kd (ADI-76362) was 16 nM.
